Results from patent US20230270825A1, “STAPLED OLEFIN CO-AGONISTS OF THE GLUCAGON AND GLP-1 RECEPTORS” (Merck Sharp & Dohme LLC, priority 2019, published 2023).
Numbered stars: 1 amine (or outer) side, 2 acyl side, 3 side chain; on linkers, the order of the positions; unused ones are H or OH. Bridge positions count the residues as written; N and C are the ends. Square brackets hold non-standard residues; d marks the D form. Side chains are listed from the residue outwards. Ends that are not written are not given here. Peptide text beside a SMILES is read from it. * marks the point of attachment. R6me = (R)-2-amino-2-methyloct-7-enoic acid, C=CCCCC[C@@](C)(N[*:1])C(=O)[*:2]; Nle(6-ylidene) = O=C([C@H](CCCC=[*:3])N[*:1])[*:2]; S7 = C[C@@](CCCCCC=[*:3])(N[*:1])C(=O)[*:2]; Gly(pent-4-enyl) = C=CCCC[C@H](N)C(=O)O; γGlu = O=C(O)[C@H](CCC(=O)[*:2])N[*:1]; Palmitoyl = CCCCCCCCCCCCCCCC(=O)*; S5 = C=CCCC[C@](C)(N)C(=O)O; Aib = CC(C)(N)C(=O)O

B1: peptide of SEQ ID NO: 17 (TP 556) (peptide)
peptide: HXQGTFTSDKSKYLDERAAXDFVXWLLDT
modifications: as printed: HsQGTFTSDKSKYLDERAA*S5HDFV*S5HWLLDT-NH2; s = D-Serine (position 2); two *S5H (positions 20 and 24) cyclized to form a double bond containing ring; C-terminal amide
B2: peptide of SEQ ID NO: 19 (TP 558) (peptide)
peptide: HXQGTFTSDKSKYLDERAAXDFVXWLLDT
modifications: as printed: HsQGTFTSDKSKYLDERAA*S5meDFV*S5meWLLDT-NH2; s = D-Serine (position 2); two *S5me (positions 20 and 24) cyclized to form a double bond containing ring; C-terminal amide
B3: peptide of SEQ ID NO: 6 (TP397) (peptide)
peptide: H[dS]QGTFTSDKS[R6me]YLDERA[S7]QDFVQWLLDT-NH2
modifications: staple 12-19
B4: peptide of SEQ ID NO: 8 (TP398) (peptide)
peptide: HXQGTFTSDXSKYLDEXAAQDFVXWLLDT
modifications: as printed: HsQGTFTSDK(γEγEC16)SKYLDE*R6meAAQDFV*S7meWLLDT-NH2; s = D-Serine (position 2); Lys 10 conjugated to C16 fatty acid via γEγE; *R6me (position 17) and *S7me (position 24) cyclized to form a double bond containing ring; C-terminal amide
B5: peptide of SEQ ID NO: 18 (TP 557) (peptide)
peptide: H[Aib]QGTFTSDKSKYLD[Aib]RAAQDFV[Gly(pent-4-enyl)]WLL[Gly(pent-4-enyl)]TK-NH2
modifications: staple 24-28; not fully specified (residue 30); printed as HUQGTFTSDKSKYLDURAAQDFV*S5HWLL*S5HTKγE-NH2; also: Lys 30 conjugated by a gamma-glutamic acid (KγE)
B6: peptide of SEQ ID NO: 14 (TP402) (peptide)
peptide: H[Aib]QGTFTSDK([γGlu-γGlu-Palmitoyl])SKYLD[Aib]RAAQDFV[S5]WLM[S5]TK-NH2
modifications: staple 24-28; not fully specified (residue 30); printed as HUQGTFTSDK(γEγEC16)SKYLDURAAQDFV*S5meWLM*S5meTKγE-NH2; also: Lys 30 conjugated by a gamma-glutamic acid (KγE)
B7: peptide of SEQ ID NO: 10 (TP399) (peptide)
peptide: H[dS]QGTFTSDK([γGlu-γGlu-Palmitoyl])SKYLDERAA[R6me]DFVQWL[S7]DT-NH2
modifications: staple 20-27
B8: peptide of SEQ ID NO: 11 (TP 399) (peptide)
peptide: H[dS]QGTFTSDKSKYLDERAA[R6me]DFVQWL[S7]DT-NH2
modifications: staple 20-27
B9: peptide of SEQ ID NO: 7 (TP397) (peptide)
peptide: HXQGTFTSDXSXYLDERAXQDFVQWLLDT
modifications: as printed: HsQGTFTSDK(γEγEC16)S*R6meYLDERA*S7meQDFVQWLLDT-NH2; s = D-Serine (position 2); Lys 10 conjugated to C16 fatty acid (-CO-(CH2)14-CH3) via γ-glutamic acid-γ-glutamic acid; *R6me (position 12) and *S7me (position 19) cyclized to form a double bond containing ring; C-terminal amide
B10: peptide of SEQ ID NO: 16 (TP551) (peptide)
peptide: H[Aib]QGTFTSDK([γGlu-γGlu-Palmitoyl])SKYLD[Aib]RAAQDFV[Gly(pent-4-enyl)]WLL[Gly(pent-4-enyl)]TK-NH2
modifications: staple 24-28; not fully specified (residue 30); printed as HUQGTFTSDK(γEγEC16)SKYLDURAAQDFV*S5HWLL*S5HTKγE-NH2; also: Lys 30 conjugated by a gamma-glutamic acid (KγE)
B11: peptide of SEQ ID NO: 15 (TP506) (peptide)
peptide: HXQGTFTSDXSKYLDERAAXDFVXWLLDT
modifications: as printed in Table 1: HsQGTFTSDK(γEγEC16)SKYLDERAA*S5HDFV*S5HWLLDT-NH2 (Table 2 prints HSQ...); s = D-Serine (position 2); Lys 10 conjugated to C16 fatty acid via γEγE; two *S5H = (S)-2-aminohept-6-enoic acid (positions 20 and 24) cyclized to form a double bond containing ring; C-terminal amide
B12: peptide of SEQ ID NO: 13 (TP401) (peptide)
peptide: H[Aib]QGTFTSDK([γGlu-γGlu-Palmitoyl])SKYLD[Aib]RAAQ[R6me]FVQWLM[S7]TK-NH2
modifications: staple 21-28; not fully specified (residue 30); printed as HUQGTFTSDK(γEγEC16)SKYLDURAAQ*R6meFVQWLM*S7meTKγE-NH2; also: Lys 30 conjugated by a gamma-glutamic acid (KγE)

Assays:
human GCGR = biological target: T1, human GCGR (Homo sapiens, UniProt P47871); assay: cAMP activity assay, cells expressing human GCGR (HitHunter cAMP XS); type: cell-based; conditions: ratio of human GCGR EC50 to human GLP1R EC50
T1 construct: expressed in transfected cells; assay-ready frozen cells grown with Blasticidin and Hygromycin
T1 sequence (P47871 26-477): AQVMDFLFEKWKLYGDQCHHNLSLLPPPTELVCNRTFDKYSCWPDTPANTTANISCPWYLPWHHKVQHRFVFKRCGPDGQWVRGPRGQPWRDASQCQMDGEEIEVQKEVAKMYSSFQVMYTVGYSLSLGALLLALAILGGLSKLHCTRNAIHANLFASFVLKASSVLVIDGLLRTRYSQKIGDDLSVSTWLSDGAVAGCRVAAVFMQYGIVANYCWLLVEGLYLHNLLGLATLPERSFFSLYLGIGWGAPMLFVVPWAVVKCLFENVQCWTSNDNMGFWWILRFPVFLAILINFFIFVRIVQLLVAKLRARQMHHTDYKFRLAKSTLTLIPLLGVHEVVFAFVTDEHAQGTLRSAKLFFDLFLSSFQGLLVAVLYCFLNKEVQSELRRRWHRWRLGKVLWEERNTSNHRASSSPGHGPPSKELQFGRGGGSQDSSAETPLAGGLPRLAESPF
Protocol: Activity of the peptides at the Glucagon receptor (GCGR) and GLP-1 receptor (GLP1R) was measured in a cAMP activity assay.
Peptides were dissolved in 100% DMSO and serially diluted to generate 10 point titrations. The peptide solutions were then transferred into 384-well assay plates (150 nL/well).
Assay ready frozen cells expressing human GLP1R or human GCGR were suspended in growth media consisting of DMEM medium (GIBCO), 10% FBS (GIBCO), 1x NEAA(GIBCO), 1x P/S (GIBCO), 10ug/ml Blasticidin (GIBCO) and 200 µg/mL Hygromycin (GIBCO). Cells were then diluted in assay buffer consisting of PBS (GIBCO), 7.5% BSA (Perkin Elmer), 100 µM RO 20-1724 (Sigma), with or without 20% human serum (MP Biomedical). The cell suspensions (15 µL) were then added to the assay plates containing the peptide solutions (30,000 cells/well for human GCGR; 10.000 cells/well for human GLP1R). The cells were incubated for 1 hour at room temperature in the dark. Production of cAMP was determined using HitHunter™ cAMPXS kits (DiscoverX) following manufacturer protocol. The plates were incubated for overnight at room temperature in the dark. Luminescence was measured using an EnVision Multilabel plate reader (Perkin Elmer). Native GLP-1 and Glucagon (Bachem) are used as control peptides. EC50 values were calculated using uses a 4 parameter logistic fit based on the Levenberg-Marquardt algorithm.

[1] = biological target: human Glucagon receptor (GCGR) (human, UniProt P47871); assay: cell-based or functional assay
[2] = biological target: human GLP-1 receptor (GLP1R) (human, UniProt P43220); assay: cell-based or functional assay

| Molecule | hGCGR/hGLP1R (hTone) (human GCGR) | GCGR EC50 human (cAMP activity assay) [1] | GLP1R EC50 human (cAMP activity assay) [2] |
| --- | --- | --- | --- |
| CCCCCCCCCCCCCCCC(=O)N[C@@H](CCC(=O)N[C@@H](CCC(=O)NCCCC[C@H](NC(=O)[C@H](CC(=O)O)NC(=O)[C@H](CO)NC(=O)[C@@H](NC(=O)[C@H](Cc1ccccc1)NC(=O)[C@@H](NC(=O)CNC(=O)[C@H](CCC(N)=O)NC(=O)[C@@H](CO)NC(=O)[C@@H](N)Cc1c[nH]cn1)[C@@H](C)O)[C@@H](C)O)C(=O)N[C@@H](CO)C(=O)N[C@@H](CCCCN)C(=O)N[C@@H](Cc1ccc(O)cc1)C(=O)N[C@@H](CC(C)C)C(=O)N[C@@H](CC(=O)O)C(=O)N[C@@H](CCC(=O)O)C(=O)N[C@@H](CCCNC(=N)N)C(=O)N[C@@H](C)C(=O)N[C@@H](C)C(=O)N[C@H]1CCCC=CCCC[C@@H](C(=O)N[C@@H](Cc2c[nH]c3ccccc23)C(=O)N[C@@H](CC(C)C)C(=O)N[C@@H](CC(C)C)C(=O)N[C@@H](CC(=O)O)C(=O)N[C@H](C(N)=O)[C@@H](C)O)NC(=O)[C@H](C(C)C)NC(=O)[C@H](Cc2ccccc2)NC(=O)[C@H](CC(=O)O)NC1=O)C(=O)O)C(=O)O [compound 15] (H-H[dS]QGTFTSDK([γGlu-γGlu-Palmitoyl])SKYLDERAA[Nle(6-ylidene)]DFV[Nle(6-ylidene)]WLLDT-NH2; staple 20-24) | 0.44 |  |  |
| CCCCCCCCCCCCCCCC(=O)N[C@@H](CCC(=O)N[C@@H](CCC(=O)NCCCC[C@H](NC(=O)[C@H](CC(=O)O)NC(=O)[C@H](CO)NC(=O)[C@@H](NC(=O)[C@H](Cc1ccccc1)NC(=O)[C@@H](NC(=O)CNC(=O)[C@H](CCC(N)=O)NC(=O)C(C)(C)NC(=O)[C@@H](N)Cc1c[nH]cn1)[C@@H](C)O)[C@@H](C)O)C(=O)N[C@@H](CO)C(=O)N[C@@H](CCCCN)C(=O)N[C@@H](Cc1ccc(O)cc1)C(=O)N[C@@H](CC(C)C)C(=O)N[C@@H](CC(=O)O)C(=O)NC(C)(C)C(=O)N[C@@H](CCCNC(=N)N)C(=O)N[C@@H](C)C(=O)N[C@@H](C)C(=O)N[C@@H](CCC(N)=O)C(=O)N[C@@H](CC(=O)O)C(=O)N[C@@H](Cc1ccccc1)C(=O)N[C@H](C(=O)N[C@H]1CCCC=CCCC[C@@H](C(=O)N[C@H](C(=O)N[C@@H](CCCCN)C(=O)N[C@@H](CCC(N)=O)C(=O)O)[C@@H](C)O)NC(=O)[C@H](CC(C)C)NC(=O)[C@H](CC(C)C)NC(=O)[C@H](Cc2c[nH]c3ccccc23)NC1=O)C(C)C)C(=O)O)C(=O)O [compound 16] (H-H[Aib]QGTFTSDK([γGlu-γGlu-Palmitoyl])SKYLD[Aib]RAAQDFV[Nle(6-ylidene)]WLL[Nle(6-ylidene)]TKQ-OH; staple 24-28) | 2.67 |  |  |
| CC(C)C[C@H](NC(=O)[C@H](Cc1ccc(O)cc1)NC(=O)[C@H](CCCCN)NC(=O)[C@H](CO)NC(=O)[C@H](CCCCN)NC(=O)[C@H](CC(=O)O)NC(=O)[C@H](CO)NC(=O)[C@@H](NC(=O)[C@H](Cc1ccccc1)NC(=O)[C@@H](NC(=O)CNC(=O)[C@H](CCC(N)=O)NC(=O)[C@@H](CO)NC(=O)[C@@H](N)Cc1c[nH]cn1)[C@@H](C)O)[C@@H](C)O)C(=O)N[C@@H](CC(=O)O)C(=O)N[C@@H](CCC(=O)O)C(=O)N[C@@H](CCCNC(=N)N)C(=O)N[C@@H](C)C(=O)N[C@@H](C)C(=O)N[C@H]1CCCC=CCCC[C@@H](C(=O)N[C@@H](Cc2c[nH]c3ccccc23)C(=O)N[C@@H](CC(C)C)C(=O)N[C@@H](CC(C)C)C(=O)N[C@@H](CC(=O)O)C(=O)N[C@H](C(N)=O)[C@@H](C)O)NC(=O)[C@H](C(C)C)NC(=O)[C@H](Cc2ccccc2)NC(=O)[C@H](CC(=O)O)NC1=O [compound 17] (H-H[dS]QGTFTSDKSKYLDERAA[Nle(6-ylidene)]DFV[Nle(6-ylidene)]WLLDT-NH2; staple 20-24) | 1.42 |  |  |
| CC(C)C[C@H](NC(=O)[C@H](Cc1ccc(O)cc1)NC(=O)[C@H](CCCCN)NC(=O)[C@H](CO)NC(=O)[C@H](CCCCN)NC(=O)[C@H](CC(=O)O)NC(=O)[C@H](CO)NC(=O)[C@@H](NC(=O)[C@H](Cc1ccccc1)NC(=O)[C@@H](NC(=O)CNC(=O)[C@H](CCC(N)=O)NC(=O)[C@@H](CO)NC(=O)[C@@H](N)Cc1c[nH]cn1)[C@@H](C)O)[C@@H](C)O)C(=O)N[C@@H](CC(=O)O)C(=O)N[C@@H](CCC(=O)O)C(=O)N[C@@H](CCCNC(=N)N)C(=O)N[C@@H](C)C(=O)N[C@@H](C)C(=O)N[C@@]1(C)CCCC=CCCC[C@@](C)(C(=O)N[C@@H](Cc2c[nH]c3ccccc23)C(=O)N[C@@H](CC(C)C)C(=O)N[C@@H](CC(C)C)C(=O)N[C@@H](CC(=O)O)C(=O)N[C@H](C(N)=O)[C@@H](C)O)NC(=O)[C@H](C(C)C)NC(=O)[C@H](Cc2ccccc2)NC(=O)[C@H](CC(=O)O)NC1=O [compound 19] (H-H[dS]QGTFTSDKSKYLDERAA[S5]DFV[S5]WLLDT-NH2; staple 20-24) | 0.77 |  |  |
| B1 |  | 3.38 nM | 2.38 nM |
| B2 |  | 2.15 nM | 2.79 nM |
| B3 |  | 20 nM | 5.3 nM |
| B4 |  | 5 nM | 2.28 nM |
| B5 |  | 4.25 nM | 0.13 nM |
| B6 |  | 4.56 nM | 0.13 nM |
| B7 |  | 8.64 nM | 0.45 nM |
| B8 |  | 5 nM | 2.74 nM |
| B9 |  | 5 nM | 0.77 nM |
| B10 |  | 0.48 nM | 0.18 nM |
| B11 |  | 0.67 nM | 1.5 nM |
| B12 |  | 5 nM | 0.26 nM |
